Reference: the supplement of paper PMC9732359
± gives the uncertainty stated by the source.

Assay: protein stability index of a GFP-peptide fusion (yeast GPS) (PSI 1-4); higher = more stable; sorted into four equal gates, so the index is relative within each strain
Procedure, shortened: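 The protein stability index of a peptide was calculated by multiplying its read frequency in each gate by that gate's number and adding the products. The peptides were tiled 17-residue stretches of yeast proteins, fused downstream of GFP on a Cherry-expressing plasmid and carried in yeast as a pooled library. Mid-log cultures in leucine-free medium were sorted into four equal gates by GFP/Cherry ratio, and each gate's plasmids were PCR-amplified and Illumina-sequenced.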

Sequence | protein stability index (doa10∆) | protein stability index (pdr5∆) | protein stability index (san1∆) | protein stability index (ubr1∆)
NNSAPNNTNNANSSITP [YJL041W/NSP1] | 3.01 ± 0.089 | 2.97 ± 0.11 | 2.73 ± 0.11 | 2.72 ± 0.11
GHRMKNAQSKLSLTLNT [SNF2] | 1.94 ± 0.056 | 1.73 ± 0.04 | 1.79 ± 0.065 | 2.24 ± 0.041
KVRLNASEREELALIEE [PRP8] | 3.14 ± 0.17 | 2.89 ± 0.14 | 2.98 ± 0.12 | 
IFGGAGGVPTTSFGQPQ [YOR098C/NUP1] | 1.57 ± 0.061 | 1.58 ± 0.074 | 1.55 ± 0.11 | 1.4 ± 0.053
KDMLYSGITGECLQAYI [RET1] | 2.65 ± 0.047 | 2.68 ± 0.051 | 2.5 ± 0.052 | 2.31 ± 0.057
GQLGLDDNDVPGPLPDT [YLR018C/POM34] | 3.27 ± 0.2 | 2.94 ± 0.14 | 2.37 ± 0.23 | 
VRTHMRNMIIVPEMIGS [RPS15] | 1.25 ± 0.059 | 1.47 ± 0.06 | 1.39 ± 0.12 | 1.54 ± 0.05
HISKIIGLDTQQVEGKL [RPN6] | 2.95 ± 0.071 | 3.43 ± 0.093 | 2.9 ± 0.065 | 2.86 ± 0.059
SSPSHIELVVTEKEEAV [RPL17A] | 2.08 ± 0.051 | 2.74 ± 0.045 | 2.3 ± 0.059 | 2.08 ± 0.039
RRILAAAAAAAAAVSGN [SSN3] | 1.41 ± 0.12 | 1.26 ± 0.1 | 1.06 ± 0.26 | 1.59 ± 0.094
KRKLDIGKDTFVTRKSR [PRP8] | 2.93 ± 0.079 | 3.05 ± 0.057 | 2.91 ± 0.068 | 3.24 ± 0.043
MKVLEERNAFLSDYEVL [RPC17] |  | 2.77 ± 0.27 |  | 
GNVIQFIYGEDGMDAAH [RPO21] | 2.89 ± 0.065 | 2.58 ± 0.06 | 3.2 ± 0.063 | 3.32 ± 0.042
VEWINPSRRERRREQTT [ISW2] |  |  |  | 3.39 ± 0.15
NGLLNEISRLKTSLSIK [SMC2] | 3.1 ± 0.21 | 3.25 ± 0.11 | 3.12 ± 0.11 | 3.11 ± 0.15
SSNKDLEDEKMKFQESL [SMC4] |  | 2.08 ± 0.26 |  | 
STKRVTKHPSLKTLTHK [POP7] | 2.56 ± 0.062 | 2.78 ± 0.06 | 2.56 ± 0.083 | 2.64 ± 0.061
IDAALDKQYRTAVATLL [SMC3] | 1.87 ± 0.093 | 2.17 ± 0.079 | 2.65 ± 0.12 | 2.82 ± 0.081
TIELAGGGYFSAAGMTA [FAS1] | 2.87 ± 0.12 | 3.19 ± 0.11 | 1.9 ± 0.16 | 2.84 ± 0.14
TNKLLFKRVSQTFEAKL [NUT1] | 1.78 ± 0.048 | 1.7 ± 0.046 | 1.74 ± 0.087 | 1.83 ± 0.04

Sequence | protein stability index (doa10∆) | protein stability index (pdr5∆) | protein stability index (san1∆) | protein stability index (ubr1∆)
AIDYEPEYEKAMQYVCG [SMC1] |  |  | 2.8 ± 0.13 | 2.44 ± 0.11
SKQPNSAIRKCVRVQLI [RPS23A] | 2.69 ± 0.078 | 2.77 ± 0.064 | 1.79 ± 0.096 | 2.96 ± 0.045
RQFLKANKTNLIESLNT [YML103C/NUP188] | 2.76 ± 0.053 | 2.97 ± 0.062 | 2.87 ± 0.047 | 2.99 ± 0.039
RPKKVKLEGSENSEPPA [SNF2] | 3.13 ± 0.095 | 2.95 ± 0.08 | 3.33 ± 0.079 | 3.28 ± 0.063
INQKALRKIQALRDVKN [GAL11] |  | 1.26 ± 0.25 |  | 
IAKFERSEEEVTKLNVL [YIL149C/MLP2] | 3.4 ± 0.13 | 3.46 ± 0.093 | 3.31 ± 0.051 | 3.4 ± 0.069
TQEFSKNYTTETDNEMN [SIR3] | 3.31 ± 0.12 | 3.49 ± 0.064 | 3.64 ± 0.075 | 3.29 ± 0.055
DKLLKRLKEKGSRVLIF [ISW2] | 1.35 ± 0.042 | 1.61 ± 0.059 | 1.36 ± 0.1 | 1.36 ± 0.052
SKLNELKKELKLLAKEL [SMC2] | 2.92 ± 0.11 | 2.9 ± 0.12 |  | 3.09 ± 0.15
YKNHELLKLERKKTEAV [SNF2] | 3.14 ± 0.081 | 3.17 ± 0.074 | 3.08 ± 0.05 | 3.13 ± 0.064
AAKKAMYTLSAQDEVFS [ASC1] | 2.78 ± 0.071 | 2.6 ± 0.063 | 2.23 ± 0.091 | 2.83 ± 0.06
LTDKDAFETHYRRLFAK [CDC53] | 2.94 ± 0.057 | 3.19 ± 0.067 | 2.97 ± 0.047 | 2.97 ± 0.043
LVELMFIRSTNSWFDVT [FAS1] | 1.65 ± 0.092 | 1.98 ± 0.072 | 1.72 ± 0.2 | 1.51 ± 0.044
IAIIKDTSDIIVDPTAE [RRP46] | 1.86 ± 0.044 | 1.92 ± 0.047 | 1.71 ± 0.078 | 1.61 ± 0.046
MGKSHGYRSRTRYMFQR [RPL21A] | 3.15 ± 0.094 | 3.25 ± 0.093 | 3.3 ± 0.056 | 3.32 ± 0.055
IQRTLMELLTQMDGFDN [RPT4] | 2.84 ± 0.12 | 3.22 ± 0.079 | 3.28 ± 0.15 | 3.23 ± 0.1
HSKRELDSGDDQPQSSE [BRR2] | 3.33 ± 0.073 | 3.38 ± 0.069 | 3.18 ± 0.057 | 3.19 ± 0.051
LINIDTSIANAFRRIMI [RPC40] | 2.28 ± 0.043 | 2.83 ± 0.054 | 3.14 ± 0.046 | 2.89 ± 0.049
EKTLGKSLSKAISTGAK [RPN7] | 2.98 ± 0.19 | 3.42 ± 0.12 | 3.53 ± 0.12 | 3.57 ± 0.19
LRYVIMKNPDVEFCGYS [RPC19] | 2.2 ± 0.14 | 2.07 ± 0.081 | 2.3 ± 0.15 | 2.87 ± 0.091
